Measured values: patent US20150344570A1 (published 2015)

T1: FcγRIIb extracellular domain with C-terminal His tag (human, UniProt P31994 43-217)
T1 construct: extracellular domain; also called 2b; FcgRIIb
T1 sequence (looked up): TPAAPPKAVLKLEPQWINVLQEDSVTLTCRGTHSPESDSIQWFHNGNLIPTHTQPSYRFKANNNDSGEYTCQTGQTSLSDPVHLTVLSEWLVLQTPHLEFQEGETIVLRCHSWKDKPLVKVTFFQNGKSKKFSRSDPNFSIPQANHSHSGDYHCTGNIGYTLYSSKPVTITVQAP

B1: GpH7-A5/GpH7-B3 variant G236_03V/GpL16-k0 (antibody, human IgG1, kappa)
heavy 1: not shown
heavy 2: not shown
light: DIVMTQSPLSLPVTPGEPASISCQASESLVHSNRNTYLHWYLQKPGQSPQLLIYKVSNRFSGVPDRFSGSGSGTDFTLKISRVEAEDVGVYYCSQNTHVPPTFGQGTKVEIERTVAAPSVFIFPPSDEQLKSGTASVVCLLNNFYPREAKVQWKVDNALQSGNSQESVTEQDSKDSTYSLSSTLTLSKADYEKHKVYACEVTHQGLSSPVTKSFNRGEC
notes: also called He Ab
B2: GpH7-A5/GpH7-B3 variant G236_12R/GpL16-k0 (antibody, human IgG1, kappa)
heavy 1: not shown
heavy 2: not shown
light: B1 light
notes: also called He Ab
B3: GpH7-A5/GpH7-B3 variant L234_03V/GpL16-k0 (antibody, human IgG1, kappa)
heavy 1: not shown
heavy 2: not shown
light: B1 light
notes: also called He Ab
B4: GpH7-A5/GpH7-B3 variant G236_08L/GpL16-k0 (antibody, human IgG1, kappa)
heavy 1: not shown
heavy 2: not shown
light: B1 light
notes: also called He Ab
B5: GpH7-A5/GpH7-B3 variant L234_05P/GpL16-k0 (antibody, human IgG1, kappa)
heavy 1: not shown
heavy 2: not shown
light: B1 light
notes: also called He Ab
B6: GpH7-A5/GpH7-B3 variant L235_01G/GpL16-k0 (antibody, human IgG1, kappa)
heavy 1: not shown
heavy 2: not shown
light: B1 light
notes: also called He Ab
B7: GpH7-A5/GpH7-B3 variant L234_12R/GpL16-k0 (antibody, human IgG1, kappa)
heavy 1: not shown
heavy 2: not shown
light: B1 light
notes: also called He Ab
B8: GpH7-A5/GpH7-B3 variant L234_07I/GpL16-k0 (antibody, human IgG1, kappa)
heavy 1: not shown
heavy 2: not shown
light: B1 light
notes: also called He Ab
B9: GpH7-A5/GpH7-B3 variant L235_13S/GpL16-k0 (antibody, human IgG1, kappa)
heavy 1: not shown
heavy 2: not shown
light: B1 light
notes: also called He Ab
B10: GpH7-A5/GpH7-B3 variant L234_15Y/GpL16-k0 (antibody, human IgG1, kappa)
heavy 1: not shown
heavy 2: not shown
light: B1 light
notes: also called He Ab; GpH7-A5/GpH7-B3-01-15Y/GpL16-k0
B11: GpH7-A5/GpH7-B3 variant E269_02A/GpL16-k0 (antibody, human IgG1, kappa)
heavy 1: not shown
heavy 2: not shown
light: B1 light
notes: also called He Ab
B12: GpH7-A5/GpH7-B3 variant G236_07I/GpL16-k0 (antibody, human IgG1, kappa)
heavy 1: not shown
heavy 2: not shown
light: B1 light
notes: also called He Ab
B13: GpH7-A5/GpH7-B3 variant E269_01G/GpL16-k0 (antibody, human IgG1, kappa)
heavy 1: not shown
heavy 2: not shown
light: B1 light
notes: also called He Ab
B14: GpH7-A5/GpH7-B3 variant L234_11K/GpL16-k0 (antibody, human IgG1, kappa)
heavy 1: not shown
heavy 2: not shown
light: B1 light
notes: also called He Ab
B15: GpH7-A5/GpH7-B3 variant G236_05P/GpL16-k0 (antibody, human IgG1, kappa)
heavy 1: not shown
heavy 2: not shown
light: B1 light
notes: also called He Ab
B16: GpH7-A5/GpH7-B3 variant G236_20W/GpL16-k0 (antibody, human IgG1, kappa)
heavy 1: not shown
heavy 2: not shown
light: B1 light
notes: also called He Ab; GpH7-A5/GpH7-B3-03-20W/GpL16-k0

Target: T2, FcγRIIIa extracellular domain with C-terminal His tag (human, UniProt P08637 17-208)
T2 construct: extracellular domain; also called 3a; FcgRIIIa
T2 sequence (P08637 17-208): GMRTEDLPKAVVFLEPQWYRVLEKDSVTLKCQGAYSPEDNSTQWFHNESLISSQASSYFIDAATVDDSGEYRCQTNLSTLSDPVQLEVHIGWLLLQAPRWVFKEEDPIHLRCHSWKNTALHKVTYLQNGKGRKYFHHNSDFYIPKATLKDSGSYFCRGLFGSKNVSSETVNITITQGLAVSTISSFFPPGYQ
Assay: SPR; ratio of He/Con_3a (FcγRIIIa) to He/Con_2b (FcγRIIb)
Experimental: (§1) The heterodimerized antibodies He Abs in which one of the H chains was introduced with an alteration were assayed for their binding activities to each activating FcγR and inhibitory FcγR according to the method described in Example 4. […] The activating FcγRs in FIGS. 26, 27, 28, and 29 are FcγRIa, FcγRIIa (R), FcγRIIa (H), and FcγRIIIa, respectively.
(§2) Analysis of interaction between objective antibody and the FcγR was carried out using Biacore T100 (GE Healthcare). HBS-EP+ (GE Healthcare) was used as the running buffer, and the measurement temperature was set to 25° C. Chips produced by immobilizing the antigen peptide by the amine coupling method to a Series S Sencor Chip CM5 (GE Healthcare), or alternatively, chips produced by allowing preliminarily biotinylated antigen peptides to interact with and immobilize onto a Series S Sensor Chip SA (certified) (GE Healthcare) were used. Antibodies of interest were captured onto an antigen peptide-immobilized chip, and allowed to interact to each FcγR diluted with running buffer. To regenerate and repeatedly use the chip, the antibodies captured on the chip were washed off by reacting 10 mM glycine-HCl, pH 1.5.

Row | He_3a/2b (IIIa/IIb) | Binder
1 | 1.64 | B1
2 | 1.84 | B2
3 | 1.25 | B3
4 | 1.21 | B4
5 | 1.21 | B5
6 | 1.66 | B6
7 | 1.95 | B7
8 | 1.27 | B8
9 | 1.44 | B9
10 | 1.35 | B10
11 | 1.38 | B11
12 | 1.93 | B12
13 | 1.21 | B13
14 | 1.88 | B14
15 | 1.95 | B15
16 | 2.33 | B16

Target: T2, FcγRIIIa extracellular domain with …
Assay: SPR, binding relative to GpH7-A5/GpH7-B3/GpL16-k0 = 100
Experimental: as §1, §2

Row | He/Con_3a | Binder
17 | 57.7 % of control | B1
18 | 12.5 % of control | B2
19 | 91.4 % of control | B3
20 | 32.5 % of control | B4
21 | 88.1 % of control | B5
22 | 58.8 % of control | B6
23 | 36.9 % of control | B7
24 | 103 % of control | B8
25 | 69.6 % of control | B9
26 | 130 % of control | B10
27 | 68.7 % of control | B11
28 | 59.7 % of control | B12
29 | 62.2 % of control | B13
30 | 30.5 % of control | B14
31 | 37.1 % of control | B15
32 | 135 % of control | B16

Target: T1, FcγRIIb extracellular domain with …
Assay: as above
Experimental: as §1, §2

Row | He/Con_2b | Binder
33 | 35.3 % of control | B1
34 | 6.8 % of control | B2
35 | 73.1 % of control | B3
36 | 26.8 % of control | B4
37 | 72.9 % of control | B5
38 | 35.4 % of control | B6
39 | 18.9 % of control | B7
40 | 80.9 % of control | B8
41 | 48.2 % of control | B9
42 | 96.3 % of control | B10
43 | 49.9 % of control | B11
44 | 31 % of control | B12
45 | 51.5 % of control | B13
46 | 16.2 % of control | B14
47 | 19 % of control | B15
48 | 58.2 % of control | B16
